Target: MAb E2-9
Test: inhibition ELISA: soluble Fba peptide against plate-coated Fba-MAP for MAb E2-9

## YGKDVKDLFDYAQE [Fba peptide (…), synthetic 14 mer from Candida albicans fructose-bisphosphate aldolase]
  IC50: 10 µg/mL

— US20140037641A1
